Values of other authors, collected in patent publication US12305171B2, “Compositions and methods for treating cancer” (bioAffinity Technologies, Inc., priority 2018, dated 2025).
Where two headings read alike, the source gives them in different places.

Conditions: cited from earlier work

B1: TCN2-Cbl: complex of transcobalamin 2 (TCN2) with cobalamin (vitamin B12) (protein, UniProt P20062 19-427, looked up)
Transcobalamin-2: EMCEIPEMDSHLVEKLGQHLLPWMDRLSLEHLNPSIYVGLRLSSLQAGTKEDLYLHSLKLGYQQCLLGSAFSEDDGDCQGKPSMGQLALYLLALRANCEFVRGHKGDRLVSQLKWFLEDEKRAIGHDHKGHPHTSYYQYGLGILALCLHQKRVHDSVVDKLLYAVEPFHQGHHSVDTAAMAGLAFTCLKRSNFNPGRRQRITMAIRTVREEILKAQTPEGHFGNVYSTPLALQFLMTSPMRGAELGTACLKARVALLASLQDGAFQNALMISQLLPVLNHKTYIDLIFPDCLAPRVMLEPAAETIPQTQEIISVTLQVLSLLPPYRQSISVLAGSTVEDVLKKAHELGGFTYETQASLSGPYLTSVMGKAAGEREFWQLLRDPNTPLLQGIADYRPKDGETIELRLVSW
modifications: complexed with cobalamin
In vivo
  plasma half-life: 1 to 15 h

B2: TCN1: plasma glycoprotein chaperone of cobalamin, sialylated and desialylated forms (protein, UniProt P20061 24-433, looked up)
Transcobalamin-1: EICEVSEENYIRLKPLLNTMIQSNYNRGTSAVNVVLSLKLVGIQIQTLMQKMIQQIKYNVKSRLSDVSSGELALIILALGVCRNAEENLIYDYHLIDKLENKFQAEIENMEAHNGTPLTNYYQLSLDVLALCLFNGNYSTAEVVNHFTPENKNYYFGSQFSVDTGAMAVLALTCVKKSLINGQIKADEGSLKNISIYTKSLVEKILSEKKENGLIGNTFSTGEAMQALFVSSDYYNENDWNCQQTLNTVLTEISQGAFSNPNAAAQVLPALMGKTFLDINKDSSCVSASGNFNISADEPITVTPPDSQSYISVNYSVRINETYFTNVTVLNGSVFLSVMEKAQKMNDTIFGFTMEERSWGPYITCIQGLCANNNDRTYWELLSGGEPLSQGAGSYVVRNGENLEVRWSKY
desialylated, less abundant form
  plasma half-life: a few minutes
sialylated, most abundant form
  plasma half-life: about 10 days
